Experiments:
[1] = target: T1, Lin28a full-length (Mus musculus, UniProt Q8K3Y3 Q8K3Y3:1-209); test: EMSA; conditions: tags: His6 removed by TEV; label: 5'-32P; stem-loop with 3' single-stranded GGAG
T1 sequence: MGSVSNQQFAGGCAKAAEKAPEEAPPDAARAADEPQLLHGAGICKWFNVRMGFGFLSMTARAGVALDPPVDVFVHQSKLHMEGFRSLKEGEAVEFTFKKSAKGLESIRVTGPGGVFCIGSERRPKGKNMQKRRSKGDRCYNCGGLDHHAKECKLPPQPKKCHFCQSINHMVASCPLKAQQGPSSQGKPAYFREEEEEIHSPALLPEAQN
Description: (§1) FIG. 9. Domain mapping and structural analysis of Lin28 protein, Related to FIG. 2. (A) EMSA of Lin28 truncations. […] Full-length preE-let-7d was used as probe, titrated with protein constructs indicated (left to right: 8 nM, 33 nM, 130 nM, 520 nM, 2.1 μM, 8.3 μM, 33.3 μM). (B) ¹⁵N-NOESY of the linker region. Homonuclear 1H/1H NOE spectral strips belonging to the residue numbers marked in red were taken from a 3D 15N-selected NOESY-HSQC, and only the amide region is shown for inter-residue backbone NOEs. Diagonal peaks are marked with a diagonal line and crosspeaks are marked with a cross. The linker region is missing inter-residue NOEs, while CCHC has amide-amide interactions evident from crosspeaks. (C) Plot of secondary shifts for Ca, CP, and C′ vs. residue number. Domain boundaries, consistent as in FIG. 2A, are marked with dashed grey lines. (D) EMSA of protein linker deletion constructs. Increasing amounts of protein (Lin28 35-187, with or without 9-residue internal deletion in the linker region) were added to radioactively labeled fragment of pre-let-7f-1 indicated. The concentrations of protein in each lane are as follows: 5 nM, 20 nM, 78 nM, 313 nM, 1.2 μM, 5 μM, 20 μM. (E) In vivo processing assay of pri-miR-122 and pri-miR-16, similar to main FIG. 2D. 293T cells (12 well) were co-transfected with Lin28 (100 ng) with pri-miR-122 or pri-miR-15-16 (750 ng). […]

[2] = target: T2, Lin28a (16-184), CSD-linker-CCHCx2 (Mus musculus, UniProt Q8K3Y3 SEQ:4-172); test: EMSA; comparable affinity to full-length; Kd bins only in figure; 20 mM Tris 7.5, 100 mM NaCl, 50 uM ZnCl2, yeast tRNA; conditions: tags: His6 removed by TEV (GSG remnant); label: 5'-32P; stem-loop with 3' single-stranded GGAG
T2 chain: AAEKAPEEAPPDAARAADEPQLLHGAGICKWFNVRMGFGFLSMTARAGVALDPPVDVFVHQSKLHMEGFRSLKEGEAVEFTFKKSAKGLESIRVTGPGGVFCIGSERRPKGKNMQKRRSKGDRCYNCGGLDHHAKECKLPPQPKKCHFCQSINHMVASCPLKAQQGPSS
Description: as §1

[3] = target: T3, Lin28a delta-delta (terminal truncations and 9-residue linker deletion) (Mus musculus, UniProt Q8K3Y3 SEQ:4-151); test: EMSA; 9-residue linker deletion supports binding; slightly lower affinity than full-length suggested; conditions: tags: His6 removed by TEV; domain-swapped dimer in crystal); label: 5'-32P; stem-loop with 3' single-stranded GGAG
T3 chain: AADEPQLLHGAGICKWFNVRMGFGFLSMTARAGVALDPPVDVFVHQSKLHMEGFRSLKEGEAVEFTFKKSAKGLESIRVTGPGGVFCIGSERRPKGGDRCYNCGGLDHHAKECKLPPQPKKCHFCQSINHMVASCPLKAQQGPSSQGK
From the text: FIG. 2. Linker between CSD and CCHCx2 is flexible. See also FIG. 9. (A) Longitudinal (R1) and transverse (R2) relaxation rates and the ratio (R2/R1), plotted against the residue number. Relatively more dynamic regions are marked with a light yellow box. (B) Alignment of internal deletions in the linker, indicated with the number of amino acids deleted on left (SEQ ID NOS 84-87, respectively, in order of appearance). (C) EMSAs with preE-let-7d as probe, mixed with increasing concentrations (0.005, 0.02, 0.08, 0.3, 1.2, 5, 20 μM) of linker deletion constructs of Lin28(16-184): *, free probe; **, complex. (D) Quantitative RT-PCR results for in vivo levels of mature let-7g. Lin28Δ is truncated at both N and C termini. Lin28ΔΔ has both of the terminal extensions and the linker removed. The standard deviation is calculated from triplicate experiments; U6 RNA levels were used for normalization. (E) and (F) Western blots of Trizol bottom layer for transfections shown in (D).

[4] = target: T2, Lin28a (16-184), CSD-linker-CCHCx2; test: EMSA; minimal preE, sufficient for high-affinity binding; complex also studied by NMR; conditions: tags: His6 removed by TEV (GSG remnant); stem-loop with 3' single-stranded GGAG
[5] = target: T4, Lin28a (Homo sapiens, UniProt Q9H9Z2 Q9H9Z2:2-209); test: EMSA; effects of preEM point mutations equivalent to mouse Lin28a; conditions: stem-loop with 3' single-stranded GGAG
T4 sequence: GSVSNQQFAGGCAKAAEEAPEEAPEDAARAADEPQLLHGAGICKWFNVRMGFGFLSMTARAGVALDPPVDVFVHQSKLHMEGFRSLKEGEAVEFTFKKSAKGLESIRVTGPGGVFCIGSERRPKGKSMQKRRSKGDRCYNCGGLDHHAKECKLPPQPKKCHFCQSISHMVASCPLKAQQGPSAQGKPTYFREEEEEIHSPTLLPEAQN

[6] = target: T5, Lin28b (Homo sapiens, UniProt Q6ZN17 Q6ZN17:1-250); test: as above; conditions: stem-loop with 3' single-stranded GGAG
T5 sequence: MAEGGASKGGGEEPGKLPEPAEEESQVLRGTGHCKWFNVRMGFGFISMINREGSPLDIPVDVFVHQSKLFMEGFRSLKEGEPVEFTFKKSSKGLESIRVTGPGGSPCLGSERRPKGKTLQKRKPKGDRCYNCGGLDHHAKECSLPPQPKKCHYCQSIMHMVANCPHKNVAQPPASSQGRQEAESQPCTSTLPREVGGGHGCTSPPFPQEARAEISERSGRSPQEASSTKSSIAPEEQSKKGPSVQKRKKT

[7] = target: T3, Lin28a delta-delta (terminal …); test: structure; crystal structure 2.9 A, Zn; conditions: tags: His6 removed by TEV; domain-swapped dimer in crystal); stem-loop with 3' single-stranded GGAG
Description: (§2) Crystals of all three complexes were produced by vapor diffusion, using the hanging drop method. Concentrated complexes (10 mg/mL) were mixed 1 μL:1 μL with reservoir solution, and crystals grew overnight. Reservoir solution contained 0.6M NaH₂PO₄, 1.4M K₂HPO₄ and 5% glycerol for preEM-let-7d and preEM-let-7f-1 complexes; for preEM-let-7g, it contained 0.1M Tris pH 8.0, 32% w/v PEG 4000, and 0.2M Sodium Acetate. Crystals were harvested with mother liquor supplemented with 20% glycerol and frozen in liquid nitrogen. Diffraction data was indexed and scaled using XDS (Kabsch, 2010) and SCALA (Evans, 2006) in a workflow provided by autoPROC (Vonrhein et al., 2011). Experimental phases were obtained for Lin28:pre-let-7d complex by anomalous scattering from zinc atoms (SAD), using HKL2MAP (Schneider and Sheldrick, 2002) and AutoSol (Terwilliger et al., 2009). The structures of Lin28: preEM-let-7f-1 and Lin28: preEM-let-7g were solved by molecular replacement with Lin28: preEM-let-7d as search model using Phaser (McCoy et al., 2007). Density modification and NCS averaging over 6 or 2 copies were performed with PHENIX (Adams et al., 2010) to obtain electron density maps for model building with COOT (Emsley and Cowtan, 2004) and PHENIX was used for further refinement. […]

[8] = target: T3, Lin28a delta-delta (terminal …); test: structure; crystal structure 2.8 A, Zn; conditions: tags: His6 removed by TEV; domain-swapped dimer in crystal); stem-loop with 3' single-stranded GGAG
Description: as §2

[9] = target: T3, Lin28a delta-delta (terminal …); test: structure; crystal structure 2.0 A, Zn; conditions: tags: His6 removed by TEV; domain-swapped dimer in crystal); stem-loop with 3' single-stranded GGAG
Description: as §2

[10] = target: T3, Lin28a delta-delta (terminal …); test: EMSA; probe is a pre-let-7f-1 fragment; conditions: tags: His6 removed by TEV; domain-swapped dimer in crystal); label: 5'-32P

UUAGGGCAGAGAUUUUGCCCACAAGGAGUU (ssRNA) [preE-let-7d]
binding result [1]: binds
binding result [2]: binds
binding result [3]: binds

GGGCAGAGAUUUUGCCCGGAG (ssRNA) [preEM-let-7d]
binding result [4]: binds
binding result [5]: binds
binding result [6]: binds
binding result [7]: binds

GGGGUAGUGAUUUUACCCUGGAG (ssRNA) [preEM-let-7f-1]
binding result [8]: binds

GGGGUCUAUGAUACCACCCCGGAG (ssRNA) [preEM-let-7g]
binding result [9]: binds

GUGGGGUAGUGAUUUUACCCUGUUUAGGAGAU (ssRNA) [preE-let-7f-1]
binding result [10]: binds
